Paper PMC8466755, “GPCR Pharmacological Profiling of Aaptamine from the Philippine Sponge Stylissa sp. Extends Its Therapeutic Potential for Noncommunicable Diseases” (Molecules, 2021)

Experiments:
[1] = target: delta opioid receptor (δ-OR, OPRD1); design: method as in PMID 27744679; conditions: calcium mobilization pathway; read-out: EC50 agonist, delta opioid receptor; cited from earlier work
CCR3 = target: T1, CCR3 (Homo sapiens, UniProt P51677); assay: PathHunter β-arrestin assay, positive allosteric modulation (PAM) mode; type: cell-based; conditions: control agonist; read-out: EC50 of positive control ligand
T1 sequence (P51677 1-355): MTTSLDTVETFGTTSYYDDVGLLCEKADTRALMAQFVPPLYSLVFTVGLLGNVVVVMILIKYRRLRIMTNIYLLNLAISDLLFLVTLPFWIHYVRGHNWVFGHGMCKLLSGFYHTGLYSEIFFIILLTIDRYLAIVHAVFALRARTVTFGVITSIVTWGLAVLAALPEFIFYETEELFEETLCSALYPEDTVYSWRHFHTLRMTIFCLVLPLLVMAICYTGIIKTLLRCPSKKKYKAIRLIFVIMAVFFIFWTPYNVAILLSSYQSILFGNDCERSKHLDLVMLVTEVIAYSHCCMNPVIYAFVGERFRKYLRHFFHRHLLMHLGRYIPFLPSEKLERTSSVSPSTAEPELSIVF
Protocol: (§1) Hit validation was performed by subjecting the aaptamine to an agonist, antagonist, and positive allosteric modulation (PAM) secondary screen utilizing thirteen GPCR biosensor assays (Arrestin) against the following targets: ADRA2A, ADRA2C, ADRB2, CCR1, CCR3, CXCR3, CXCR7, DRD2L, DRD2S, DRD4, HTR1E, OPRK1, and SSTR1. The assays were performed at 10-point concentrations using three-fold serial dilutions in duplicate. For all the assay formats, the final assay vehicle concentration was 1%.
(§2) For PAM assays, the cells were preincubated with the sample followed by agonist induction at the EC20 concentration. To the cells, 5 µL of 5X sample was added and incubated for 30 min at 37 °C or room temperature. Following the incubation period, 5 µL of the 6X EC20 agonist prepared in an assay buffer was added to the cells and incubated for 90 or 180 min at 37 °C or room temperature. The percent activity of aaptamine was calculated following this formula: % modulation = 100% × ((mean RLU of test sample − mean RLU of EC20 control)/(mean RLU of MAX control ligand − mean RLU of EC20 control)).

CCR1 = target: T2, CCR1 (Homo sapiens, UniProt P32246); assay: PathHunter β-arrestin assay, agonist mode; type: cell-based; conditions: dose-response, agonist mode
T2 sequence (P32246 1-355): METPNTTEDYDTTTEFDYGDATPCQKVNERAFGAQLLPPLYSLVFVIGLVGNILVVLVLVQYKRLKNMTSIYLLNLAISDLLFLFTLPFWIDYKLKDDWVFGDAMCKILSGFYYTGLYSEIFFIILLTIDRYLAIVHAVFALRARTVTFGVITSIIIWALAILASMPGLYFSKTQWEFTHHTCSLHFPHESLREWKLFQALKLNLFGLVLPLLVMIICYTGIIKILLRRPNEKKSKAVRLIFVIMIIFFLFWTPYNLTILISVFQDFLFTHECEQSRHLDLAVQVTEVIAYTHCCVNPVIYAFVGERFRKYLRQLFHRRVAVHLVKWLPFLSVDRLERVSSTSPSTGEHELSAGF
Protocol: Aaptamine (20 µM) was profiled in gpcrMAX panel biosensor assays (in agonist and antagonist modes) against a panel of 168 GPCRs. The assay was performed by DiscoverX Corporation (Fremont, CA) using PathHunter β -arrestin enzyme fragment complementation (EFC) technology, in a similar way to that described elsewhere. The PathHunter cell lines were taken from freezer stocks according to standard procedures. A total of 20 µL of cells were seeded into white 384-well plates and incubated at 37 °C for the appropriate time prior to testing.
For agonist determination, aaptamine was incubated with PathHunter cell lines to induce a response. To increase the concentration, intermediate dilution from 20 µM of aaptamine was performed to generate a 5X sample in an assay buffer. Then, 5 µL of 5X sample was added to the plate with PathHunter cells and incubated for 90 or 180 min at 37 °C or room temperature. The percentage activity of aaptamine was calculated following this formula: % activity = 100% × (mean RLU of test sample − mean RLU of vehicle control)/(mean MAX control ligand − mean RLU of vehicle control).
as §1

CXCR3 = target: T3, CXCR3 (Homo sapiens, UniProt P49682); assay: PathHunter β-arrestin assay, positive allosteric modulation (PAM) mode; type: cell-based; conditions: control agonist; read-out: EC50 of positive control ligand
T3 sequence (P49682 1-368): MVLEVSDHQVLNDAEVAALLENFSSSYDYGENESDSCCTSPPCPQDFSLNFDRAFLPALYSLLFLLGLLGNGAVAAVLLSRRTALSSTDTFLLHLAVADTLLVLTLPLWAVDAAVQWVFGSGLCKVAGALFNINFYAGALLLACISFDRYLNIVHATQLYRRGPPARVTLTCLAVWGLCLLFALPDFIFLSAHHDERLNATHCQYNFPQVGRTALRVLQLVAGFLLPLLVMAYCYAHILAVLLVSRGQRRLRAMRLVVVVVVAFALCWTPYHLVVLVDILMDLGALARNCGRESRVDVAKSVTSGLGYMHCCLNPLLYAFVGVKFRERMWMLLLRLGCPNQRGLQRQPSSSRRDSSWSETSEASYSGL
Protocol: as §1, §2

In the case of COc1cc2ccnc3c2c(c1O)NC=C3 [9-demethyl aaptamine], the EC50 [1] is listed as 4100 nM.
For COC1=Cc2ccnc3ccnc(c23)C1=O [demethyl(oxy)-aaptamine], the EC50 [1] is given as 2300 nM.
Work on “CCL3: ligand used as positive control for CCR3” yielded an EC50 (CCR3) of 3 nM.
Molecule “CCL13: ligand used as positive control for CCR1” has an EC50 (CCR1) of 26 nM.
With “CXCL11: ligand used as positive control for CXCR3” the EC50 (CXCR3) was 6.7 nM.
